Laboratory results taken from publication PMC10287916, “MSH2-MSH3 promotes DNA end resection during homologous recombination and blocks polymerase theta-mediated end-joining through interaction with SMARCAD1 and EXO1” (Nucleic Acids Research, 2023).

How the values were obtained:
[1] = biological target: T1, MSH2-MSH3 (MutSβ), purified (human, UniProt P43246 1-934; P20585 1-1137); test: co-IP; in vitro immunoprecipitation: purified first protein on antibody-conjugated Dynabead protein G, washed with buffer X, second purified protein added for 1 h; western blot; details: both partners purified
T1 construct: MSH2, human, full length; MSH3, human, full length; Purified on a HisTrap HP column; also called MSH2-MSH3 heterodimer; source: Hi5 insect cells (baculovirus), purified (HisTrap HP, Superdex 200)

[2] = biological target: T2, MSH2-MSH6 (MutSα), purified (human, UniProt P43246 1-934; P52701 1-1360); test: native gel or EMSA; 4 μM or 8 μM SMARCAD1 incubated with 1 nM Cy5-labeled 40 bp homoduplex, GT mismatch or 58 bp flap DNA in buffer H with 1 mM ATP, then MSH2-MSH6 titrated, 5 min; details: both partners purified
T2 construct: MSH2, human, full length; MSH6, human, full length; source: Hi5 insect cells (baculovirus), purified (HiTrap Heparin HP, HiTrap Q HP, Superdex 200)
T2 sequence (P43246 whole entry, chain 1 of 2): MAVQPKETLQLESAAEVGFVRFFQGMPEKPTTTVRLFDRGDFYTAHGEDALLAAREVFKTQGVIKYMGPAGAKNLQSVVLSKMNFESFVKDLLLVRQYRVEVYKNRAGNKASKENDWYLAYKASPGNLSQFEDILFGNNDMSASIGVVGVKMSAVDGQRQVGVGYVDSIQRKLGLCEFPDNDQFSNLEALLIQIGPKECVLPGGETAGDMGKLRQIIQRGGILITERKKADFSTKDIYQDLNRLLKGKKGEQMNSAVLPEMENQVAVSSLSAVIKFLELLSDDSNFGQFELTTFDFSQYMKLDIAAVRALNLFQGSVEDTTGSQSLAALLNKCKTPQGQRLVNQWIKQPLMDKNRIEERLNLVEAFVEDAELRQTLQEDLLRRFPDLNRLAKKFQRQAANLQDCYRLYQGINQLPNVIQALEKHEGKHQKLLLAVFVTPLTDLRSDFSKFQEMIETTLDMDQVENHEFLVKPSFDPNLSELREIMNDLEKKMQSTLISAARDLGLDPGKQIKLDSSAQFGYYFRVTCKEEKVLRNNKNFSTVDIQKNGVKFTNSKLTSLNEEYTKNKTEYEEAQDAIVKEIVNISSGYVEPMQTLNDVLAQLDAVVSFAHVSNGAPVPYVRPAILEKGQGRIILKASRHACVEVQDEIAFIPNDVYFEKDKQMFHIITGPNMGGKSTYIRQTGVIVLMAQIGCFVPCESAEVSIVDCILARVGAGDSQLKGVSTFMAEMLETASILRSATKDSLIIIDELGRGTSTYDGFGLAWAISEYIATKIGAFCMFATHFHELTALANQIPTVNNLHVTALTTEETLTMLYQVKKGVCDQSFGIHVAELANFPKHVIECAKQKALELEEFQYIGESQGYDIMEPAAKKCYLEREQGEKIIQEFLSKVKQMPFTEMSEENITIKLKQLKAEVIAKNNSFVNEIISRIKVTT
T2 sequence (P52701 whole entry, chain 2 of 2): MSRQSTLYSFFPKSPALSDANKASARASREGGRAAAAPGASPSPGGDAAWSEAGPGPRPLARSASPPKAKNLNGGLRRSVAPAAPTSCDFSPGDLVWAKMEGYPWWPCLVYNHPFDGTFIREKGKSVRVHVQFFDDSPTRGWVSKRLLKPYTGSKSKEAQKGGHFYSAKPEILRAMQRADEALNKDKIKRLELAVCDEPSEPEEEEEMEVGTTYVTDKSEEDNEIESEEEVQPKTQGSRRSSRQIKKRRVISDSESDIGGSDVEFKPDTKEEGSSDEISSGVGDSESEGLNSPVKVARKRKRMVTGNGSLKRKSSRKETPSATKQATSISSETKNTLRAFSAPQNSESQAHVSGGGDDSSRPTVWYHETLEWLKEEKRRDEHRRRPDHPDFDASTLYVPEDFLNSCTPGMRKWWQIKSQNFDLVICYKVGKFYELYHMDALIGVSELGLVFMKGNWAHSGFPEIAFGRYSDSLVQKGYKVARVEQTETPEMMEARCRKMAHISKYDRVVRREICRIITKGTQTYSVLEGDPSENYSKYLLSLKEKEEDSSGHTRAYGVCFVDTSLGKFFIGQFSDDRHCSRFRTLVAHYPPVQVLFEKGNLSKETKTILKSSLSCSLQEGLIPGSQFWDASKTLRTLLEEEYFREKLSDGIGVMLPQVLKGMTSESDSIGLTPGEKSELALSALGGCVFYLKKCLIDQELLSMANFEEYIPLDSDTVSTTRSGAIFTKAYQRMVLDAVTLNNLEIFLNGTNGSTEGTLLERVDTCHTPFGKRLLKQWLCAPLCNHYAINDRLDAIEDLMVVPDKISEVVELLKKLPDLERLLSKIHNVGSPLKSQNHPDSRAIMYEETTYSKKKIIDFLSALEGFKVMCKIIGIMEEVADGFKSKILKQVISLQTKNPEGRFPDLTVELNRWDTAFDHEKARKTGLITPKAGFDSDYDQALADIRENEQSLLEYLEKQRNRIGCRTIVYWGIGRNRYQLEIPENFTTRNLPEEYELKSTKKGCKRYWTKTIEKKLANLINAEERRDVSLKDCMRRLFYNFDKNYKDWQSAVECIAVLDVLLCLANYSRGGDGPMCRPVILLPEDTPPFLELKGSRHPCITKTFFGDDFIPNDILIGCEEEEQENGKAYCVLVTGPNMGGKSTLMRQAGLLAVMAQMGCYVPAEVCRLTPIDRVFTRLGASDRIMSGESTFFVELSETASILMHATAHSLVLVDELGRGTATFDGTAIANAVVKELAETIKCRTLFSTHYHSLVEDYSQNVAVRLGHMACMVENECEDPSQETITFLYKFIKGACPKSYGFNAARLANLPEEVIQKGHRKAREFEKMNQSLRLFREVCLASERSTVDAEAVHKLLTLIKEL

T1 sequence (P43246 whole entry, chain 1 of 2): as the sequence (P43246 whole entry, chain 1 of 2) above
T1 sequence (P20585 whole entry, chain 2 of 2): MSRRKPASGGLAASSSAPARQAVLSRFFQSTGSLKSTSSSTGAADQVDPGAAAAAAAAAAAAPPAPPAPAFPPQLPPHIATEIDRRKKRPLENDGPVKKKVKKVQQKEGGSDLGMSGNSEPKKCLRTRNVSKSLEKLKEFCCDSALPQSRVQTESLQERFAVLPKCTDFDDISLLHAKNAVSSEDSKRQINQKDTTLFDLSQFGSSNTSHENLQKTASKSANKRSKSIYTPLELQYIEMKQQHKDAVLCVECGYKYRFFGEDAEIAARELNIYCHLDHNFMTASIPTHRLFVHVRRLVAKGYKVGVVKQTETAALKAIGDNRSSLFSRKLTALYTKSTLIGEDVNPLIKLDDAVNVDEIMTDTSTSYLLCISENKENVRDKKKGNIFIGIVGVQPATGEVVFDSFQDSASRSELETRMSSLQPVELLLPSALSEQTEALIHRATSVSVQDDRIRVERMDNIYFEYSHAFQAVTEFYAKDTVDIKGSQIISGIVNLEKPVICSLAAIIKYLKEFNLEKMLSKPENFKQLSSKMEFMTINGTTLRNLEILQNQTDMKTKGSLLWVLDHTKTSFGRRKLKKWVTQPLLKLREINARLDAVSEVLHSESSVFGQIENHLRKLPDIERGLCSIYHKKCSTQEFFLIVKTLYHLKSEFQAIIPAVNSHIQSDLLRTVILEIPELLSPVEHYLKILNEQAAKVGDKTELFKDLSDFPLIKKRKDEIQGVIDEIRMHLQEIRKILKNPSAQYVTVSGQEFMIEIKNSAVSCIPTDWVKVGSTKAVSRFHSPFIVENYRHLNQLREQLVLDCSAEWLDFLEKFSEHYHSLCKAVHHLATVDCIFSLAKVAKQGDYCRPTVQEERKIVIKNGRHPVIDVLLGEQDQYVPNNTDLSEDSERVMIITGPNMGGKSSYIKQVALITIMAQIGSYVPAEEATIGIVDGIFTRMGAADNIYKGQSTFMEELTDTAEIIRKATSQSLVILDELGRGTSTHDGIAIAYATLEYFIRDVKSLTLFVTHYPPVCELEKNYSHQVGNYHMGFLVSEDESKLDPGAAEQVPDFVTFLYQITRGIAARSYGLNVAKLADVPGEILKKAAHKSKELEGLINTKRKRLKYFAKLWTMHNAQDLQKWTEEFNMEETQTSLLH

B1: SMARCAD1, purified (enzyme, human, UniProt Q9H4L7 1-1026, looked up)
chain: MNLFNLDRFRFEKRNKIEEAPEATPQPSQPGPSSPISLSAEEENAEGEVSRANTPDSDITEKTEDSSVPETPDNERKASISYFKNQRGIQYIDLSSDSEDVVSPNCSNTVQEKTFNKDTVIIVSEPSEDEESQGLPTMARRNDDISELEDLSELEDLKDAKLQTLKELFPQRSDNDLLKLIESTSTMDGAIAAALLMFGDAGGGPRKRKLSSSSEPYEEDEFNDDQSIKKTRLDHGEESNESAESSSNWEKQESIVLKLQKEFPNFDKQELREVLKEHEWMYTEALESLKVFAEDQDMQYVSQSEVPNGKEVSSRSQNYPKNATKTKLKQKFSMKAQNGFNKKRKKNVFNPKRVVEDSEYDSGSDVGSSLDEDYSSGEEVMEDGYKGKILHFLQDASIGELTLIPQCSQKKAQKITELRPFNSWEALFTKMSKTNGLSEDLIWHCKTLIQERDVVIRLMNKCEDISNKLTKQVTMLTGNGGGWNIEQPSILNQSLSLKPYQKVGLNWLALVHKHGLNGILADEMGLGKTIQAIAFLAYLYQEGNNGPHLIVVPASTIDNWLREVNLWCPTLKVLCYYGSQEERKQIRFNIHSRYEDYNVIVTTYNCAISSSDDRSLFRRLKLNYAIFDEGHMLKNMGSIRYQHLMTINANNRLLLTGTPVQNNLLELMSLLNFVMPHMFSSSTSEIRRMFSSKTKSADEQSIYEKERIAHAKQIIKPFILRRVKEEVLKQLPPKKDRIELCAMSEKQEQLYLGLFNRLKKSINNLEKNTEMCNVMMQLRKMANHPLLHRQYYTAEKLKEMSQLMLKEPTHCEANPDLIFEDMEVMTDFELHVLCKQYRHINNFQLDMDLILDSGKFRVLGCILSELKQKGDRVVLFSQFTMMLDILEVLLKHHQHRYLRLDGKTQISERIHLIDEFNTDMDIFVFLLSTKAGGLGINLTSANVVILHDIDCNPYNDKQAEDRCHRVGQTKEVLVIKLISQGTIEESMLKINQQKLKLEQDMTTVDEGDEGSMPADIATLLKTSMGL
notes: SMARCAD1, human, full length; source: Hi5 insect cells (baculovirus), purified (HisTrap HP, Superdex 200)
Question: Does B1 bind [1]?
Answer: binds

Question: Does B1 bind [2]?
Answer: binds
